Test results reported in patent publication US20220348631A1.
Where “and” joins values, the source holds several entries; their conditions need not be identical. Equal entries are not always repeated. Each block holds one substance with its values, some of them ahead of it.

Legend:
Experiment in all cases: cell-based or functional assay
[1] = target: PD-L1 on LoVo / LoVo.OKT3.GFP cells (UniProt Q9NZQ7)
[2] = target: carcinoembryonic antigen (CEA) on LoVo, LS174T or H508 tumor cells (UniProt P06731)
Sequence of UniProt P06731 (P06731 35-702 limits assumed): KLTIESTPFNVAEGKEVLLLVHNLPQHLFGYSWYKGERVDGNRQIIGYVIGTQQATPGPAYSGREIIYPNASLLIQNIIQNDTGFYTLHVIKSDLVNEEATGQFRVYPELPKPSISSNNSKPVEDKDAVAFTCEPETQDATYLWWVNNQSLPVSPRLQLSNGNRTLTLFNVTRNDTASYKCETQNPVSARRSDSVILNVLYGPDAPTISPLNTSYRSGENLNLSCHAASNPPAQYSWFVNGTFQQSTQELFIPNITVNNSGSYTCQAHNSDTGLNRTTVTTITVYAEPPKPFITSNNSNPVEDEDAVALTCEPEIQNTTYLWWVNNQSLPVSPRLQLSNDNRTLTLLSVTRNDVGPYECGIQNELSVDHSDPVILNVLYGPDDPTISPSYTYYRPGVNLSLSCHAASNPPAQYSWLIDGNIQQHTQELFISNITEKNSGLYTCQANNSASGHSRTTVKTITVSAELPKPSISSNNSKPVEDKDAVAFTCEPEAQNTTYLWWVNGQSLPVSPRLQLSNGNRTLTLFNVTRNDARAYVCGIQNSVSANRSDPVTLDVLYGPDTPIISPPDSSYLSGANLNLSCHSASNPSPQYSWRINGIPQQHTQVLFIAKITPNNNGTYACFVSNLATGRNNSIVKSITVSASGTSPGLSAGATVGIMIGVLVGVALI

[3] = target: Human folate receptor alpha (FolR) on cells (human) (UniProt P15328)
Sequence of UniProt P15328 (P15328 25-234): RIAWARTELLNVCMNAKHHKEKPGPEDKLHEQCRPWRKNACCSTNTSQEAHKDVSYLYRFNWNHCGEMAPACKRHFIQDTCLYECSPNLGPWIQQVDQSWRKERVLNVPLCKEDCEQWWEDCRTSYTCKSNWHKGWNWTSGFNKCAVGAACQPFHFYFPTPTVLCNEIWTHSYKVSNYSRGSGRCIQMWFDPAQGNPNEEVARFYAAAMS

Sequence of UniProt Q9NZQ7 (Q9NZQ7 19-290 limits assumed): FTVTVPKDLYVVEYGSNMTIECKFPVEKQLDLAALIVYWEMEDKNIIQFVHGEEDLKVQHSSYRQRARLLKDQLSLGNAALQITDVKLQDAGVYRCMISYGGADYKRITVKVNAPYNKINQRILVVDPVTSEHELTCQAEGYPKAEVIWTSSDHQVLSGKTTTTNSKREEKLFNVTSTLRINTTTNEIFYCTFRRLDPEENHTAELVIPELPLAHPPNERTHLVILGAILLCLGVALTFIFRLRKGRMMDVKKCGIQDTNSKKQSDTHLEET

Substance: CTP189 PD1_PD1_sCD28TM_CD28_CD40 (monomeric) (receptor)
- IL-2 secretion (ELISA), 24 h coculture with LoVo-OKT3 [1]: < 1000 pg/mL

Substance: CTP194 OSM_MFE23_spCD28_CD28_CD40 (receptor)
- IFNγ (ELISA) after 24 h with LoVo-OKT3 [2]: > 30 ng/mL
- IFNγ (ELISA), coculture with LoVo-OKT3 [2]: 1000 pg/mL
- IL-2 (ELISA) after 24 h with LoVo-OKT3 [2]: 4000 pg/mL
- IL-2 (ELISA), coculture with LoVo-OKT3 [2]: 4000 pg/mL
- IL-2 secretion (ELISA), 24 h coculture with LoVo-OKT3 [2]: 4000 pg/mL
- IL-2 secretion (ELISA), coculture with LoVo-OKT3 [2]: 29 ng/mL
- T-cell expansion over 18 days with LoVo-OKT3 and IL-2 [2]: > 60 fold
- fold expansion after two rounds of stimulation with LoVo-OKT3 [2]: 10 fold
- fold expansion on serial stimulation with LoVo-OKT3 [2]: 12 fold
- fold expansion with LoVo-OKT3, after restimulation (day 14-15) [2]: > 10 fold
- fold expansion with LoVo-OKT3, first time point (day 6-8) [2]: 4 fold

Substance: CTP196 OSM_MFE23_spCD28_CD28_CD40 (PVQET-AVAEA) (receptor)
- IFNγ (ELISA) after 24 h with LoVo-OKT3 [2]: 10 ng/mL

Substance: CTP198 OSM_MFE23_spCD28_CD28_CD40 (P227A) (receptor)
- IFNγ (ELISA) after 24 h with LoVo-OKT3 [2]: > 30 ng/mL
- IL-2 (ELISA) after 24 h with LoVo-OKT3 [2]: 4000 pg/mL

Substance: CTP201 OSM_MFE23_spCD28_CD28 (PYAPP-AYAA)_CD40 (receptor)
- IFNγ (ELISA), coculture with LoVo-OKT3 [2]: 1000 pg/mL
- IL-2 (ELISA), coculture with LoVo-OKT3 [2]: 2500 pg/mL

Substance: CTP202 OSM_MFE23_spCD28_CD28 (YMNM-FMNM)_CD40 (receptor)
- IL-2 (ELISA), coculture with LoVo-OKT3 [2]: 2500 pg/mL

Substance: MFE23 CD28(IEV) truncated CoStAR (receptor)
- IL-2 secretion (ELISA), coculture with LoVo-OKT3 [2]: 4.6 ng/mL

Other lines, results leading:

- IL-2 secretion (ELISA), 24 h coculture with LoVo-OKT3 [1]: < 1000 pg/mL
Substance: CTP188 PD1_PD1_sCD28TM_CD28_CD40 (dimeric) (receptor)

- IFNγ (ELISA) after 24 h with LoVo-OKT3 [2]: > 30 ng/mL
- IL-2 (ELISA) after 24 h with LoVo-OKT3 [2]: 4000 pg/mL
Substance: CTP195 OSM_MFE23_spCD28_CD28_CD40 (SVQE-AVQA) (receptor)

- IFNγ (ELISA) after 24 h with LoVo-OKT3 [2]: > 30 ng/mL
Substance: CTP197 OSM_MFE23_spCD28_CD28_CD40 (PQEINF-AQAINF) (receptor)

- IFNγ (ELISA) after 24 h with LoVo-OKT3 [2]: > 30 ng/mL
Substance: CTP200 OSM_MFE23_spCD28_CD28_CD40_CD40_CD40 (receptor)

- enhancement of Bcl-XL induction in the presence of OvCAR-OKT3 [3]: 20%
- enhancement of IL-2 induction in the presence of OvCAR-OKT3 [3]: 20%
- enhancement of TNFα production in the presence of OvCAR-OKT3 [3]: 20 to 30%
- mean fold expansion of T cells, 21 days with OvCAR-OKT3 [3]: 187 fold
Substance: MOV19.CD28 CoStAR (from UniProt P10747 19-220) (receptor)

- CD137 expression [3]: 50%
- CD137 expression in CoStAR+ TIL, coculture with FolR high expressing tumor digest [3]: 50%
- CD137 expression in CoStAR+ TIL, coculture with FolR low expressing tumor digest [3]: > 20%
- IL-2 production [3]: 5%
- TNFα production [3]: 15%
- enhancement of Bcl-XL induction in the presence of OvCAR-OKT3 [3]: 35%
- enhancement of IL-2 induction in the presence of OvCAR-OKT3 [3]: 30 to 50%
- enhancement of TNFα production in the presence of OvCAR-OKT3 [3]: 25% and 50%
- mean fold expansion of T cells, 21 days with OvCAR-OKT3 [3]: 1300 fold
Substance: MOV19.CD28.CD40 CoStAR (OSM_MOV19_spCD28_CD28_CD40) (receptor)
